From patent US20240252641A1 (TCR2 THERAPEUTICS, published 2024)

T1: human CD70, recombinant, N-terminally biotinylated (residues 39-193) (human, UniProt P32970 39-193, N-terminal biotin)
T1 construct: range 39-193; the same entry is used there; also called biotinylated human CD70; CD70 biotin
T1 sequence (looked up): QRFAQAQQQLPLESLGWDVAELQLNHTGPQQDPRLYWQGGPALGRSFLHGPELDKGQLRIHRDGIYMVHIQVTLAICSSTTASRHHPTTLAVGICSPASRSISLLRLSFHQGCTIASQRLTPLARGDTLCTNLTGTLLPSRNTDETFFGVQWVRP

T2: CD70 on cells (CHO-CD70, JVM-3, U266, Raji, THP-1, T cells) (human, UniProt P32970 1-193)
T2 construct: whole, on cells; also called cell-surface CD70
T2 sequence (looked up): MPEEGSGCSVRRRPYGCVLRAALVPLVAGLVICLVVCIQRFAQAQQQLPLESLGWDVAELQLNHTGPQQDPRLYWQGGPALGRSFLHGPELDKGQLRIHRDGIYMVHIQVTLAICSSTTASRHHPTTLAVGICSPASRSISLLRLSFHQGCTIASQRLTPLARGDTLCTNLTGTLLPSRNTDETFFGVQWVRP


Legend:
[1] = molecular target: T1, human CD70, recombinant, N-terminally …; assay: SPR
Outline: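 The scFv antibodies are human and were isolated by panning a naïve human library on the extracellular domain of CD70 (aa39-193). Their affinity (Kd) was measured by surface plasmon resonance analysis. The binding partner was recombinant human antigen biotinylated at the N-terminus.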

[2] = molecular target: T2, CD70 on cells (CHO-CD70, JVM-3, U266, …); assay: 1.25 µg/mL scFv on U266 cells
Outline: (§1)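 Tumour cell lines with high CD70 expression (CHO-CD70, JVM3, U266) or low CD70 expression (CHO WT, K562) were used to assess cell binding of human scFv antibodies, with results recorded per line. These antibodies had been selected by panning a naïve human library on the CD70 extracellular domain (aa39-193).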

[3] = molecular target: T2, CD70 on cells (CHO-CD70, JVM-3, U266, …); assay: 1.25 µg/mL scFv on JVM-3 cells
Outline: as §1

[4] = molecular target: T2, CD70 on cells (CHO-CD70, JVM-3, U266, …); assay: 1.25 µg/mL scFv on CHO-CD70 cells
Outline: as §1

[5] = molecular target: T1, human CD70, recombinant, N-terminally …; assay: CD27 blocking ELISA, 3 µM scFv, strep/HRP
[6] = molecular target: T1, human CD70, recombinant, N-terminally …; assay: CD27 blocking ELISA, 3 µM scFv, anti-His/HRP; further: unit not given here
Protocol: Human scFv antibodies binding CD70 were generated by panning a naïve human library with the extracellular domain (aa39-193) of CD70. 53 antibodies were identified. The ability of CD27 to block CD70 binding of the identified antibodies was measured by ELISA using two different assays. In the first assay, CD27 and his-tagged scFv anti-CD70 binders were simultaneously added to surface bound CD70, and the ability of the scFv binders to bind CD70 was detected with anti-His HRP. In the second assay, plate-bound CD70 was pre-incubated with CD27 for 30 minutes, and then additional CD27 and the his-tagged scFv anti-CD70 binder was added. The ability of the scFv binders to bind CD70 was detected with anti-His HRP. FIG. 34 is a schematic of the two different CD27 blocking assays. CD70 affinity was also measured by SPR analysis. scFv antibodies were also tested for their ability to bind tumor cell lines with high (CHO-CD70, JVM3, and U266) and low levels (CHO WT and K562 of CD70 expression. Results for 39 antibodies are shown in Table 1 below.

Binder	Kd [1] [µM]	cell binding [2]	cell binding [3]	cell binding [4]	strep/HRP [5]	anti His/HRP [6]
50-TC7-III-A11 (scFv, His-tagged; also called 1985) scFv: QVQLVQSGAEVKRPGASVKVSCKASGYTFTSYYMHWVRQAPGQGLEWMGIINPSGGSTSYAQKFQGRVTMTRDTSTSTVYMELSSLRSEDTAVYYCAIEPGYCSGGSCYPDAFDIWGQGTTVTVSSGGSGGSGGSGGSQSVLTQPPSASGTPGQRVTISCSGSSSNIGSDYVYWYQRVPGTAPKLLIYRDNQRPSGVPDRFSGSKSGTSASLAISGLRSDDEADYYCAAWDDSLSGWVFGGGTKVTVL	4.19	45000	12200	122000	0.868	2.25
53-TC7-VI-B06 (scFv, His-tagged) scFv: EVQLLESGGGVVQPGRSLRLSCAASGFTFSSYGMHWVRQAPGKGLEWVAVISYDGSNKYYADSVKGRFTISRDNSKNTLYLQMNSLRAEDTAVYYCAKGELELTNWGQGTLVTVSSGGSGGSGGSGGSSYELTQPPSVSVAPGQTARITCGGNNIGSKSVHWYQQKSGQAPVLVVYDDTDRPSGTPERFSGSNSGNTATLTISGTQAMDEADYYCQAWDSSTAVFGTGTKVTVL	0.235	1170	1830	12200	1.44	1.38
61-TC7-IV-H08 (scFv, His-tagged) scFv: QMQLVQSGGGLVQPGRSLRLSCAASGFTFDDYAMHWVRQAPGKGLEWVAVISYDGSNKYYADSVKGRFTISRDNSKNTLYLQMNSLRAEDTAVYYCARSSYDFWSGYPKDMDVWGKGTTVTVSSGGSGGSGGSGGSSSELTQDPAVSVALGQTVRITCQGDSLRSYYASWYQQKPGQAPVLVIYGKNNRPSGIPDRFSGSSSGNTASLTITGAQAEDEADYYCNSRDSSGNHLVVFGGGTKLTVL	0.332	947	1070	64900	1.52	0.711
13-TC7-V-H10 (scFv, His-tagged) scFv: QVQLQQWGAGLLKPSETLSLTCAVYGGSFSGYYWSWIRQPPGKGLEWIGEINHSGSTNYNPSLKSRVTISVDTSKNQFSLKLSSVTAADTAVYYCARSRRPYWYFDLWGRGTLVTVSSGGSGGSGGSGGSQSALTQPASVSGSPGQSITISCTGTSSDVGGYNSVSWYRQHPGKAPKLMIYDVTNRPSGVSNRFSGSKSGNTASLTISGLQAEDEADYYCSSSSISATWVFGGGTKLTVL	0.0669	34300	87500	601000	1.38	1.97
57-TC7-VII-A03 (scFv, His-tagged) scFv: QVQLQQSGPGLVKASETLSLTCAVSGHSISSSNYWGWIRQPPGKGLEWIGSIYHSGTTYYNPSLKSRVTMSVDTSKNQFSLKLSSVTAADTAVYYCARHGSGDLGYLEYWGQGTLVTVSSGGSGGSGGSGGSSYELTQSPSVSVAPGKTARITCGGNNIGSKSVHWYQQKPGQAPVLVIYYDSDRPSGIPERFSGSNSGNTATLTISRVEAGDEADYYCQVWDSSSDHPVFGGGTKVTVL	0.853	3150	1640	163000	1.49	1.89
54-TC7-V-D10 (scFv, His-tagged) scFv: QVQLQQWGAGLLKPSETLSLTCAVYGGSFSGYYWSWIRQPPGKGLEWIGEINHSGSTNYNPSLKSRVTISVDTSKNQFSLKLSSVTAADTAVYYCARGGYRSYWYFDLWGRGTLVTVSSGGSGGSGGSGGSQSALTQPASVSGSPGQSITISCTGTSSDVGGYNSVSWYQHHPGKAPKLMIYDVSDRPSGVSDRFSGSKSGNTASLTISGLQAEDEADYYCSSYAGSNNVVFGGGTKVTVL	0.209	1140	2130	240000	1.17	1.46
38-TC7-V-G06 (scFv, His-tagged) scFv: QMQLVQSGAEVKKPGSSVKVSCKASGGTFSSYAISWVRQAPGQGLEWMGWISAYNGNTNYAQKLQGRVTMTTDTSTSTAYMELRSLRSDDTAVYYCARDDYWGQGTLVTVSSGGSGGSGGSGGSSYELTQPPSVSVAPGKTARITCSGDVLGENYADWYQQKPGQAPELVIYEDSERYPGIPERFSGSTSGNTTTLTISRVLTEDEADYYCLSGDEDNRVFGGGTKLTVL	0.182	16900	27400	1.34e+06	1.53	1.02
60-TC7-VII-C02 (scFv, His-tagged) scFv: QVQLQQWGAGLLKPSETLSLTCAVYGGSFSGYYWSWIRQPPGKGLEWIGEINHSGSTNYNPSLKSRVTISVDTSKNQFSLKLSSVTAADTAVYYCARSPLWFGPPDAFDIWGQGTMVTVSSGGSGGSGGSGGSQSALTQPPSASGSPGQSVSISCTGTSSDVGGYNYVSWYQQHPGKAPKLIIYDVDKRPSGIPERFSGSNSGNTATLTISGTQAMDEADYYCQAWDSSTEVVFGGGTKVTVL	0.135	5040	10800	458000	1.58	1.27
56-TC7-VI-H08 (scFv, His-tagged) scFv: QMQLVQSGAEVKKPGASVKVSCKASGYTFTSYYMHWVRQAPGQGLEWMGIINPSGGSTSYAQKFQGRVTMTRDTSTSTAYMELRSLRSDDTAVYYCARGWETNDAFDIWGQGTMVTVSSGGSGGSGGSGGSQSVLTQPPSVSGAPGQKVTISCSGSNSNVGNHYLSWYQHLPGTAPRLLIFDNNKRPSGIPDRFSGSKSGASATLDITGLQTGDEADYFCGTWDSRLNVWVFGGGTKLTVL	0.535	6310	2360	296000	1.44	1.5
15-TC7-I-D07 (scFv, His-tagged) scFv: QVQLQQWGAGLLKPSETLSLTCAVYGGSFSGYYWSWIRQPPGKGLEWIGEINHSGSTNYNPSLKSRVTISVDTSKNQFSLKLSSVTAADTAVYYCARVSRSRGAFDIWGQGTMVTVSSGGSGGSGGSGGSQSALTQPASVSGSPGQSITISCTGTNSDVGAYNYVSWYQQHPGKAPKLMIYEVTNRPSGVSNRFSGSKSGNTASLTISGLQAEDEADYYCSSYTSSGTWVFGGGTKLTVL	1.75	42900	50900	271000	1.45	2.5
62-TC7-V-D08 (scFv, His-tagged) scFv: QVQLQQWGAGLLKPSETLSLTCAVYGGSFSGYYWSWIRQPPGKGLEWIGEINHSGSTNYNPSLKSRVTISVDTSKNQFSLKLSSVTAADTAVYYCARVARGKGAFDIWGQGTMVTVSSGGSGGSGGSGGSQSALTQPASVSGSPGQSITISCTGTSSDVGGYNYVSWYQQHPGKAPKLLIYEVSSRPSGVSNRFSGSKSGNTASLTISGLQAEDEADYYCNSYTNSGSWVFGGGTKVTVL	0.194	35300	45200	286000	1.54	2
47-TC7-III-D10 (scFv, His-tagged) scFv: QVQLVQSGAEVKKPGASVKVSCKASGYTFTSYGISWVRQAPGQGLEWMGWISAYNGNTNYAQKLQGRVTMTTDTSTSTAYMELRSLRSDDTAVYYCARDSSSWYYYYGMDVWGQGTTVTVSSGGSGGSGGSGGSSYELTQPPSVSVSPGQTARISCSGDALPNQYAYWYQQKPGQAPVLVIYQDSERPSGIPERFSGSSSGTTVTLTISGVQAEDEADYYCQSADTYGTSWVFGGGTKLTVL	0.0186	19000	34700	313000	1.55	1.5
